# From patent publication US20260028402A1 (SANYOU BIOPHARMACEUTICALS, published 2026)
# Positions count from the first letter of the chain named.
# B1: A9-VHH2 (antibody, human IgG4 S228P, V domains shown)
# VH: QVQLVESGGGLVQAGGSLRLSCAASGFSLDYYAIGWFRQAPGKEREEVSCISSSGGSTDYADSVKGRFTISRAYAKVYLQMNSLRAEDTAVYYCAAGVSGSVCPPLIGAYWGQGTLVTVSS
# B2: A9 (antibody, human IgG4 S228P, V domains shown)
# VH: B1 VH with R85K, A86P, L116Q
# notes: also called antibody A9; antibody molecule A9
# B3: A9-VHH1 (antibody, human IgG4 S228P, V domains shown)
# VH: B1 VH with A14P, R85K, A86P
# B4: A9-VHH3 (antibody, human IgG4 S228P, V domains shown)
# VH: B1 VH with E44G, R45L
# B5: A31 (antibody, human IgG4 S228P, V domains shown)
# VH: EVQLVESGGGLVQPEGSLRLSCAASGFPLDYYAIGWFRQAPGKEREGVSCIISGGSTKYSASVKGRFTISRDSANNTVYLQMNSLKPEDTAVYFCAVSWSCDLFPRDTYGWDAWGQGTLVTVSS
# notes: also called antibody A31; antibody molecule A31
# B6: A31-VHH1 (antibody, human IgG4 S228P, V domains shown)
# VH: B5 VH with N75K, K86R, P87A
# notes: also called humanized antibody A31-VHH1
# B7: Pepinemab (antibody, V domains shown)
# VH: QVQLVQSGAEVKKPGSSVKVSCKASGYSFSDYYMHWVRQAPGQGLEWMGQINPTTGGASYNQKFKGKATITVDKSTSTAYMELSSLRSEDTAVYYCARYYYGRHFDVWGQGTTVTVSS
# VL: DIVMTQSPDSLAVSLGERATINCKASQSVDYDGDSYMNWYQQKPGQPPKLLIYAASNLESGVPDRFSGSGSGTDFTLTISSLQAEDVAVYYCQQSNEDPYTFGQGTKLEIK
# B8: A31-VHH (VHH)
# VHH: B5 VH
# notes: Tested as phage clone / VHH lysate in the screening; also called antibody A31-VHH
# B9: MusCD100-Fc (Fc fusion, mouse, UniProt O09126 24-733, looked up)
# chain: FAPVPRLTWEHGEVGLVQFHKPGIFNYSALLMSEDKDTLYVGAREAVFAVNALNISEKQHEVYWKVSEDKKSKCAEKGKSKQTECLNYIRVLQPLSSTSLYVCGTNAFQPTCDHLNLTSFKFLGKSEDGKGRCPFDPAHSYTSVMVGGELYSGTSYNFLGSEPIISRNSSHSPLRTEYAIPWLNEPSFVFADVIQKSPDGPEGEDDKVYFFFTEVSVEYEFVFKLMIPRVARVCKGDQGGLRTLQKKWTSFLKARLICSKPDSGLVFNILQDVFVLRAPGLKEPVFYAVFTPQLNNVGLSAVCAYTLATVEAVFSRGKYMQSATVEQSHTKWVRYNGPVPTPRPGACIDSEARAANYTSSLNLPDKTLQFVKDHPLMDDSVTPIDNRPKLIKKDVNYTQIVVDRTQALDGTFYDVMFISTDRGALHKAVILTKEVHVIEETQLFRDSEPVLTLLLSSKKGRKFVYAGSNSGVVQAPLAFCEKHGSCEDCVLARDPYCAWSPAIKACVTLHQEEASSRGWIQDMSGDTSSCLDKSKESFNQHFFKHGGTAELKCFQKSNLARVVWKFQNGELKAASPKYGFVGRKHLLIFNLSDGDSGVYQCLSEERVRNKTVSQLLAKHVLEVKMVPRTPPSPTSEDAQTEGSKITSKMPVASTQGSSPPTPALWATSPRAATLPPKSSSGTSCEPKMVINTVPQLHSEKTVYLKSSDNR
# modifications: biotinylated in the Plexin binding and blocking assays (sites not given)
# notes: range 24-733; Expressed in HEK293 cells; also called MusCD100-Fc-Biotin; MusCD100-Fc antigen protein; not shown: human Fc tag added to the C-terminus
# Target: HuCD100-His (human, UniProt Q92854 22-734)
# Experiment: cell-based or functional assay
Binder,MDSC proportion (%) at 2.821 nM antibody [%],MDSC proportion (%) at 8.463 nM antibody [%],MDSC proportion (%) at 25.389 nM antibody [%],MDSC proportion (%) at 76.166 nM antibody [%],MDSC proportion (%) at 228.498 nM antibody [%],MDSC proportion (%) at 685.495 nM antibody [%]
B1,31.2,17.8,13.1,10.5,9.09,10.9
B2,34.2,23.2,10.2,5.12,7.08,11.1
B3,32.6,21.1,11,6.56,9.06,15.6
B4,30.9,21.3,11.8,7.66,8.85,15
B5,16.8,8.97,9.56,10.4,10.7,14.7
B6,16.4,9.21,7.71,7.84,13.7,10

# Target: T1, full-length human CD100 protein HuCD100 on cells (human, UniProt Q92854 22-862)
# T1 construct: whole, on cells; the cell is named under assay; also called HuCD100-HEK293; human CD100 on HuPBMC
# Experiment: flow cytometry on HuPBMCs naturally expressing human CD100
# Protocol: (§1) The specific procedures were as follows: HuPBMCs (AllCells, PB004F-C (Y1246)) and Jurkat cells (ATCC, TIB-152) in logarithmic growth phase were prepared as single-cell suspensions. The density was adjusted to 1×10⁶ cells/mL, and 100 μL of each suspension was added per well to 96-well plates. The plates were centrifuged at 4° C., 300 g and the supernatants were removed. […] After incubation, the cell mixture was washed three times, and then 100 μL of 1:300 diluted secondary antibody Goat F(ab′)₂ Anti-Human IgG-Fc (PE) (abcam, ab98596) was added, and the plates were incubated in the dark at 4° C. for 30 min. Following 3 additional washes, detection was performed using a flow cytometer (Beckman, CytoFLEX AOO-1-1102).
row,Binder,EC50 [pM]
1,B7,223
2,B2,191
3,B5,162

# Target: T2, MusCD100-His (mouse, UniProt O09126 24-733)
# T2 construct: range 24-733; Expressed in HEK293 cells; also called MusCD100-His antigen protein; not shown: His tag added to the C-terminus
# Experiment: ELISA, antigen coated on plate
row,Binder,binding result
1,B6,binds

# Target: T2, MusCD100-His
# Experiment: primary ELISA screening of monoclonal clones
row,Binder,binding result
1,B8,binds

# Target: T3, full-length mouse CD100 protein MusCD100 on cells (mouse, UniProt O09126 24-861)
# T3 construct: whole, on cells; Overexpressed on HEK293 cells; also called MusCD100-HEK293
# Experiment: flow cytometry on MusCD100-HEK293 cells
row,Binder,binding result
1,B5,binds
2,B6,binds

# Target: T1, full-length human CD100 protein HuCD100 …
# Experiment: flow cytometry on Jurkat cells naturally expressing human CD100
# Protocol: as §1
row,Binder,EC50 [pM]
1,B7,559
2,B2,346
3,B5,302

# Target: T4, full-length mouse Plexin-B1 protein MusPlexin-B1 on cells (mouse, UniProt Q8CJH3 20-2119)
# T4 construct: whole, on cells; Overexpressed on HEK293 cells; also called MusPlexin-B1-HEK293
# T4 sequence (Q8CJH3 20-2119): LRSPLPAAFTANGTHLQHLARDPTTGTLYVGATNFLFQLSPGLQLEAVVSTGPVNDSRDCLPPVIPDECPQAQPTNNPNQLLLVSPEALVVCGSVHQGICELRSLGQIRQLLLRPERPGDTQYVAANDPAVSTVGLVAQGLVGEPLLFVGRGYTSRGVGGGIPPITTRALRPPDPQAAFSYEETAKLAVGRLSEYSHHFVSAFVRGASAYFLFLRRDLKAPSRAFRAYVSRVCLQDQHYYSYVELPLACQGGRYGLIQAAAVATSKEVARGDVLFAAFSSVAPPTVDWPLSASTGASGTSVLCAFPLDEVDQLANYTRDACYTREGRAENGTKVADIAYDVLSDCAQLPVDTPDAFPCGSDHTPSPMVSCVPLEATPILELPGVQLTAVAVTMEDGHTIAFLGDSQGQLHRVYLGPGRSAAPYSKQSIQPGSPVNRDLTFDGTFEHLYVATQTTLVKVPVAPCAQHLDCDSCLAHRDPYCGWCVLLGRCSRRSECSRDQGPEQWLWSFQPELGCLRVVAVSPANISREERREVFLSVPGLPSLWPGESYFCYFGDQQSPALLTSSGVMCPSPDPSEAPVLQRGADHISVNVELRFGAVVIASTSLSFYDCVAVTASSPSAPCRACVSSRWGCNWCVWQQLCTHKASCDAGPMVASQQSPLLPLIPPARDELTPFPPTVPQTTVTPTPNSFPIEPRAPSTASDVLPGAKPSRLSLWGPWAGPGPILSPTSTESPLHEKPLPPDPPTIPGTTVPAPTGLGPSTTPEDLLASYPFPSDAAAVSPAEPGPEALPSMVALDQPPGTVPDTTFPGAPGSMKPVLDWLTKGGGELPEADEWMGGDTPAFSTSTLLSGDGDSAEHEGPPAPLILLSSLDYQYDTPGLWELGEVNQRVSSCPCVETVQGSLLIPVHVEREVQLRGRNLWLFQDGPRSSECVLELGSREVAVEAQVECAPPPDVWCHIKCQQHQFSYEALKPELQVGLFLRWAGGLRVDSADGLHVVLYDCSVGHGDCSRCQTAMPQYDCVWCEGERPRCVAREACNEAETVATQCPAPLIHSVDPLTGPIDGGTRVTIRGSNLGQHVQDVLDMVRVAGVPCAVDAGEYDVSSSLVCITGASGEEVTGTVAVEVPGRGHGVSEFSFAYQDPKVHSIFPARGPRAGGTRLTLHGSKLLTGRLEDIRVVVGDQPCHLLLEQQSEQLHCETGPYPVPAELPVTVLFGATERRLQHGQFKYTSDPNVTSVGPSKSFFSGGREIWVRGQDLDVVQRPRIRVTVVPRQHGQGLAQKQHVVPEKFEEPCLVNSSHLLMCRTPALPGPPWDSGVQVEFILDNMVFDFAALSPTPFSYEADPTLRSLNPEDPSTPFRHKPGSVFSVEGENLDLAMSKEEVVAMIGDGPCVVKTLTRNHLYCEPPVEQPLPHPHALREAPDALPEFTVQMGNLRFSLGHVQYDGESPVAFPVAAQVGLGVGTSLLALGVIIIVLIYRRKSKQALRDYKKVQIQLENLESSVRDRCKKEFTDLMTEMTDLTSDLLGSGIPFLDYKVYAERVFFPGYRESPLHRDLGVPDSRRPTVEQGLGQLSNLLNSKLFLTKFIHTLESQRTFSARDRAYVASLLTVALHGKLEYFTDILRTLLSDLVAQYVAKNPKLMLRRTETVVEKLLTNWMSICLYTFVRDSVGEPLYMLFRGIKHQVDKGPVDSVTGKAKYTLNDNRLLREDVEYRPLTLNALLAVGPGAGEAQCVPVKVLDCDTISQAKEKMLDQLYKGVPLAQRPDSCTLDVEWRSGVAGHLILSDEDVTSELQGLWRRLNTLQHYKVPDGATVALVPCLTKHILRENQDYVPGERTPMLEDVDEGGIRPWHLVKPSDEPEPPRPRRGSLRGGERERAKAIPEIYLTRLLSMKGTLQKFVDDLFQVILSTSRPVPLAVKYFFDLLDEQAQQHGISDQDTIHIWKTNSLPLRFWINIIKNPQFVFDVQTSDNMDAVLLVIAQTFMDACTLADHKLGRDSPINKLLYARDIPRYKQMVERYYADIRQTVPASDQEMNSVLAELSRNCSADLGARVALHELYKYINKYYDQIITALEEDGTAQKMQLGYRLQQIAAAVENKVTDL
# Experiment: flow cytometry on MusPlexin-B1-HEK293 cells with biotinylated antigen protein and streptavidin PE
# Protocol: Flow cytometry identification of HuPlexin-B1-HEK293, MusPlexin-B1-HEK293, CynoPlexin-B1-HEK293, and HuPlexin-B2-HEK293 cells: cells of the above cell lines in the logarithmic growth phase were trypsinized and plated into 96-well plates. […] After washing, the prepared eBioscience Streptavidin PE (Invitrogen, 2265658, 1:300) was added and the plates were incubated at 4° C. for 30 min. Finally, detection was performed using a flow cytometer (Beckman, CytoFLEXAOO-1-1102).
row,Binder,binding result
1,B9,binds
